Earlier results on 1 molecule are cited in patent publication US20240269237A1, “PHARMACEUTICAL COMPOSITION AND KIT COMPRISING AN IMMUNOMODULATORY SUBSTANCE FOR TREATING DISEASES” (ellennbe GmbH, priority 2021, published 2024).

In this data set the test system is ankylosing spondylitis (Bechterew's disease). The note with it: Patient 11, history; within half a year the biologics lost their effect.

B1: certolizumab pegol (antibody, chains of the INN, looked up, V domains shown)
VH: EVQLVESGGGLVQPGGSLRLSCAASGYVFTDYGMNWVRQAPGKGLEWMGWINTYIGEPIYADSVKGRFTFSLDTSKSTAYLQMNSLRAEDTAVYYCARGYRSYAMDYWGQGTLVTVSS
VL: DIQMTQSPSSLSASVGDRVTITCKASQNVGTNVAWYQQKPGKAPKALIYSASFLYSGVPYRFSGSGSGTDFTLTISSLQPEDFATYYCQQYNIYPLTFGQGTKVEIK
With B1, the “effect of earlier treatment with biologics” value is “little effect from the outset”.
